In paper PMC8171064 one finds stoichiometry N data, which are given here for one substance.

In general, stoichiometry N refers to the number of molecules, sites or subunits per partner or assembly.

The assay concerns the target Saccharomyces cerevisiae Rsm22 protein, C-terminally His6-tagged (construct MA-S17–K628-HHHHHH) (S. cerevisiae) (UniProt P36056). Put plainly: SEC-MALS; pooled and concentrated first SEC peak (higher oligomeric form); Superdex 200 10/300 GL; 40 mM Tris pH 7.5, 500 mM NaCl, 5% glycerol. Background: In gel filtration, larger molecules generally elute earlier.

On to “Saccharomyces cerevisiae Rsm22 protein, C-terminally His6-tagged (construct MA-S17–K628-HHHHHH) (from UniProt P36056 17-628) (enzyme)”, for which the stoichiometry N turned out to be 2.
